According to patent publication US20260274980A1 (BIOARCTIC, published 2026):
Numbering of substitutions follows the chain as printed.

How the values were obtained:
[1] = molecular target: T1, cynomolgus TfR1 (recombinant, construct not stated) (cynomolgus, UniProt H9EXL1 90-760 (rhesus entry)); assay: indirect ELISA of Fabs as for hTfR1, on cTfR1 (coating construct not stated), A450 [upper right panel cTfR1]
T1 construct: also called cTfR1; cynoTfR

[2] = molecular target: T2, truncated hTfR1 of SEQ ID NO:86 (human, UniProt P02786 122-760); assay: SPR (Biacore 8K), single-cycle kinetics on immobilised hTfR1 (SEQ ID NO:86), as in Example 12 [column VH first, row Human TfR1]
T2 construct: Given only as 'truncated hTfR1'; amine-coupled to a CM5 chip for SPR; also called human TfR1

[3] = molecular target: T3, truncated cTfR1 of SEQ ID NO:87 (cynomolgus, UniProt Q5RDH6 122-760 (Pongo abelii entry), limits assumed); assay: SPR (Biacore 8K), single-cycle kinetics on immobilised cTfR1 (SEQ ID NO:87), as in Example 12 [column VH first, row Cynomolgus TfR1]
T3 construct: Printed only as 'truncated cTfR1'; amine-coupled to a CM5 chip for SPR; also called cynomolgus TfR1
T3 chain: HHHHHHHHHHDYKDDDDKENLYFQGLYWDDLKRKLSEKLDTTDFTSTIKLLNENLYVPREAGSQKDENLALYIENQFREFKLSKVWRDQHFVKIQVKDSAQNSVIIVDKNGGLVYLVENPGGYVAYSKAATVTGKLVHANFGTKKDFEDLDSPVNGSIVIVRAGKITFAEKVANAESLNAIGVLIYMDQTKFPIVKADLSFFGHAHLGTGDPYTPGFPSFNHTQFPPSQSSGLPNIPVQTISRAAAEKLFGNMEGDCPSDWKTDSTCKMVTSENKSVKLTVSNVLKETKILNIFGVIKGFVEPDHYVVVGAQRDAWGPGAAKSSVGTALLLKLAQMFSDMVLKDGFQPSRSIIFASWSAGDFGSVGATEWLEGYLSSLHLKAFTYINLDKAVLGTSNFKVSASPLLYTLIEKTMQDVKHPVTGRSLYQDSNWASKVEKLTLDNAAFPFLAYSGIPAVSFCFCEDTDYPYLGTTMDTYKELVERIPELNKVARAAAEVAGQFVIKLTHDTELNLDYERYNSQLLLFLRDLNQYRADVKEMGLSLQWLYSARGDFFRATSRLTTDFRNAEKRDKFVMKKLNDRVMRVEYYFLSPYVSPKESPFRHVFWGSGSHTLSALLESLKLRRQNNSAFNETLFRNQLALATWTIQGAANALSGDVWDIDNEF

[4] = molecular target: T4, human transferrin receptor 1 (hTfR1) on cell surfaces (human, UniProt P02786 1-760); assay: flow cytometry on K562 cells (hTfR1 on the surface), Fc receptors blocked, overnight at 4 °C, detection with anti-human IgG-Alexa Fluor 488
T4 construct: Endogenous receptor on hCMEC/D3, THP-1, K562 and Ramos cells; also called CD71; endogenous hTfR1
Procedure: Fcγ receptors were blocked using Fc receptor blocker (Innovex biosciences, #NB309-4X-40) for 30 min at 4° C., after which the cells were washed in PBS. […] The plate was incubated at 4° C. overnight. […] Staining was carried out for 30 min at 4° C. […] The cells were finally resuspended in 200 μl PBS with 1% BSA and acquired using a BD FACSLyric flow cytometer system (BD Biosciences). Samples were analyzed using flowJo software (BD Biosciences).

[5] = molecular target: T3, truncated cTfR1 of SEQ ID NO:87; assay: SPR (Biacore 8K), single-cycle kinetics on immobilised cTfR1 (SEQ ID NO:87), as in Example 12 [column VL first, row Cynomolgus TfR1]
[6] = molecular target: T2, truncated hTfR1 of SEQ ID NO:86; assay: SPR, hTfR1 amine-coupled, scFv in bispecific format injected
[7] = molecular target: T4, human transferrin receptor 1 (hTfR1) on …; assay: flow cytometry, Ramos cells
Procedure: Binding to hTfR1 on cells was measured on the immortalized human B lymphocyte cell line Ramos (Sigma, cat: 85030802). This cell line is known for expressing high levels of hTfR1 on the cell surface. Fcγ receptors were blocked using Fc receptor blocker (Innovex biosciences, #NB309-4X-40) for 30 min at 4° C., after which the cells were washed in PBS. The cells were seeded in a 96 well V bottom plate (#249570, Thermo Scientific Nunc), and serially diluted Gen 2A constructs were added and the plate was incubated at 4° C. overnight. The cells were washed with PBS with 1% BSA and then fixed with freshly prepared 4% formaldehyde (Thermo Scientific Pierce, #28906) diluted in PBS for 15 min at room temperature. The cells were washed with PBS containing 1% BSA, and then stained. […] Staining was carried out for 30 min at 4° C. After incubation with the detection reagent, cells were washed with PBS containing 1% BSA. The cells were finally resuspended in 200 μl PBS with 1% BSA and acquired using a BD FACSLyric flow cytometer system (BD Biosciences). Samples were analyzed using flowJo software (BD Biosciences).

B1: h26D3-Fab (Fab, V domains shown)
VH: EVQLVQSGAEVKKPGSSVKVSCKASGYIFTDYNMDWVRQAPGQGLEWIGDINPDYDTTSYNEKFKGRATLTVDKSTSTAYMELSSLRSEDTAVYYCARGGYSGSSYYHPMDYWGQGTLVTVSS
VL: DIQMTQSPSSVSASVGDRVTITCKSSQSLLYSTNQKNYLAWYQQKPGKAPKLLIYWASTRESGVPSRFSGSGSGTDFTLTISSLQPEDFATYYCQQYFIYPRTFGQGTKVEIK
notes: His-tagged Fab from ExpiCHO; also called humanized 26D3 Fab
B1 was tested, and the “EC50 (read off the curve)” value [1] was about 1 nM.

B2: mAb158-Gen2D-h26D3 VH first (bispecific antibody, human IgG1, kappa)
heavy 1: not shown
heavy 2: not shown
light: DIVMTQAPLSLPVSLGDQASISCRSSQSIVHSNGNTYLEWYLQKPGQSPKLLIYKVSNRFSGVPDRFSGSGSGTDFTLKISRVEAEDLGIYYCFQGSHVPPTFGGGTKLEIKRTVAAPSVFIFPPSDEQLKSGTASVVCLLNNFYPREAKVQWKVDNALQSGNSQESVTEQDSKDSTYSLSSTLTLSKADYEKHKVYACEVTHQGLSSPVTKSFNRGEC
notes: Knob-into-hole antibody; also called Gen 2D construct, VH first
B2: binds [2]; binds [3].

B3: mAb158-Gen2D-h26D3 VL first (bispecific antibody, human IgG1, kappa)
heavy 1: not shown
heavy 2: not shown
light: B2 light
notes: Knob-into-hole antibody; also called Gen 2D construct, VL first
For B3, the “EC50 (read off the curve)” value [4] was about 30 nM and the binding result [5] was “binds”.

B4: bispecific binding molecule (format of WO2022/258841) comprising h26D3 LC1 scFv (bispecific antibody, V domains shown)
VH: B1 VH
VL: B1 VL with Y31A
B4 showed a Kd [6] of about 40 nM.

B5: bispecific binding molecule (format of WO2022/258841) comprising h26D3 HC6 scFv (bispecific antibody, V domains shown)
VH: B1 VH with Y55A
VL: B1 VL
B5 was tested, and the Kd [6] was 100 to 200 nM.

B6: bispecific binding molecule (format of WO2022/258841) comprising h26D3 LC5 scFv (bispecific antibody, V domains shown)
VH: B1 VH
VL: B1 VL with Y97A
B6 gave a Kd [6] of 400 to 500 nM.

B7: 2A-3 #8 (bispecific antibody, human IgG1, kappa)
heavy: not shown
chain: DIVMTQAPLSLPVSLGDQASISCRSSQSIVHSNGNTYLEWYLQKPGQSPKLLIYKVSNRFSGVPDRFSGSGSGTDFTLKISRVEAEDLGIYYCFQGSHVPPTFGGGTKLEIKRTVAAPSVFIFPPSDEQLKSGTASVVCLLNNFYPREAKVQWKVDNALQSGNSQESVTEQDSKDSTYSLSSTLTLSKADYEKHKVYACEVTHQGLSSPVTKSFNRGECGGGGSDIQMTQSPSSVSASVGDRVTITCKSSQSLLYSTNQKNYLAWYQQKPGKAPKLLIYWASTRESGVPSRFSGSGSGTDFTLTISSLQPEDFATYYCQQYFIYPRTFGQGTKVEIKGGGGSGGGGSGGGGSEVQLVQSGAEVKKPGSSVKVSCKASGYIFTDYNMDWVRQAPGQGLEWIGDINPDADTTSYNEKFKGRATLTVDKSTSTAYMELSSLRSEDTAVYYCARGGYSGSSYYHPMDYWGQGTLVTVSSGGGGSGGGGSGGGGSGGGGSDIVMTQAPLSLPVSLGDQASISCRSSQSIVHSNGNTYLEWYLQKPGQSPKLLIYKVSNRFSGVPDRFSGSGSGTDFTLKISRVEAEDLGIYYCFQGSHVPPTFGGGTKLEIKRTVAAPSVFIFPPSDEQLKSGTASVVCLLNNFYPREAKVQWKVDNALQSGNSQESVTEQDSKDSTYSLSSTLTLSKADYEKHKVYACEVTHQGLSSPVTKSFNRGEC
notes: also called Gen 2A construct #8; VL first
B7: binds [7].
